US20250361274A1, “PEPTIDE AND PEPTIDE-CONTAINING AGENT” (PEPTIDREAM INC., priority 2022, published 2025)
pIC50: −log10 of the molar value. Numbered stars: 1 amine (or outer) side, 2 acyl side, 3 side chain; on linkers, the order of the positions; unused ones are H or OH. Bridge positions count the residues as written; N and C are the ends. Square brackets hold non-standard residues; d marks the D form. Side chains are listed from the residue outwards. Ends that are not written are not given here. Peptide text beside a SMILES is read from it. * marks the point of attachment. KCOpipzaa = N6-(4-(carboxymethyl)piperazine-1-carbonyl)-L-lysine, O=C(NCCCC[C@H](N[*:1])C(=O)[*:2])N1CCN(CC(=O)[*:3])CC1; X8 = 4‑(carboxymethyl)piperazine‑1‑carbonyl, O=C(O)CN1CCN(C(=O)*)CC1; 3Pal(6-Ph) = N[C@@H](Cc1ccc(-c2ccccc2)nc1)C(=O)O; Phe(4-COOH) = N[C@@H](Cc1ccc(C(=O)O)cc1)C(=O)O; NMePhe(4-Cl) = CN[C@@H](Cc1ccc(Cl)cc1)C(=O)O; Piperazinyl(4-CH2COOH) = O=C(O)CN1CCN(*)CC1; Bip = N[C@@H](Cc1ccc(-c2ccccc2)cc1)C(=O)O; Phe(3-Me) = Cc1cccc(C[C@H](N)C(=O)O)c1; Phe(4-F) = N[C@@H](Cc1ccc(F)cc1)C(=O)O; Phe(4-Me) = Cc1ccc(C[C@H](N)C(=O)O)cc1; Hyp = O=C(O)[C@@H]1C[C@@H](O)CN1; NMeF = CN[C@@H](Cc1ccccc1)C(=O)O; hCit = NC(=O)NCCCC[C@H](N)C(=O)O; 4Pal = N[C@@H](Cc1ccncc1)C(=O)O; Aad = N[C@@H](CCCC(=O)O)C(=O)O; Cha = N[C@@H](CC1CCCCC1)C(=O)O; Cba = N[C@@H](CC1CCC1)C(=O)O; CO = O=C([*:1])[*:2]; βAla = NCCC(=O)O

Assays:
[1] = target: T1, BMP4 (Homo sapiens, UniProt P12644); experiment: BMP4 signal transduction inhibitory activity: SMAD1 phosphorylation by BMP4 stimulus, AlphaLISA SureFire, A549 cells; assay type: cell-based; conditions: for aLISA BMP4: inhibition of SMAD1 phosphorylation by BMP4 stimulus, A549 cells; for aLIZA BMP4 (0.2 nM) % Inh: SMAD1 phosphorylation by BMP4 stimulus
T1 sequence (P12644 293-408): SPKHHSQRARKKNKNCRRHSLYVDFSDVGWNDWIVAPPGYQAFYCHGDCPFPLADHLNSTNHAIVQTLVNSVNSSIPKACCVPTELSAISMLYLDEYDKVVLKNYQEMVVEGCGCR

[2] = target: T2, BMP7 (Homo sapiens, UniProt P18075); experiment: BMP7 signal transduction inhibitory activity: SMAD1 phosphorylation by BMP7 stimulus, A549 cells; assay type: cell-based; conditions: for aLISA BMP7: inhibition of SMAD1 phosphorylation by BMP7 stimulus, A549 cells; for aLIZA BMP7 (10 nM) % Inh: SMAD1 phosphorylation by BMP7 stimulus
T2 sequence (P18075 293-431): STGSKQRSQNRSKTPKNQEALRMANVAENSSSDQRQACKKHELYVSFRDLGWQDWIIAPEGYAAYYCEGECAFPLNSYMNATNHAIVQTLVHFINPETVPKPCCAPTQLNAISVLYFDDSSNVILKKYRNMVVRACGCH
Outline: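 Inhibition is read as reduced BMP7-driven SMAD1 phosphorylation in human A549 cells, with the BMP7 stimulus at 10 nM. Three-point peptide concentrations spanned 1–1,000 nM depending on the peptide series. Some peptides received eight-point, 1/3-ratio titrations from 100 nM or 1,000 nM, alongside a Noggin control.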

[3] = peptides of Synthesis 2, classes A-C, ND
[4] = peptides of Synthesis 2, classes A-D, ND
[5] = AlphaLISA, class by peptide concentration zone
[6] = peptide conc. in assay 0.02, 0.2, 2 nM, class symbols
[7] = peptide conc. in assay 10, 100, 1000 nM, class symbols
[8] = BMP4 0.2 nM stimulus, peptide conc. in assay 0.2, 2, 20 nM
[9] = BMP7 10 nM stimulus, peptide conc. in assay 1, 10, 100 nM
[10] = BMP4 0.2 nM stimulus, peptide conc. in assay 2, 20, 200 nM
[11] = BMP7 10 nM stimulus, peptide conc. in assay 10, 30, 90 nM

Compound: 116 (EKVYVKRFPYPFYFFSCA; not fully specified; MOD_RES 2 K represents N6-(4-(Carboxymethyl) piperazine-1-carbonyl)-L-lysine(KCOpipzaa); MOD_RES 6 K represents N6-(4-(Carboxymethyl) piperazine-1-carbonyl)-L-lysine(KCOpipzaa); MOD_RES 8 F represents (S)-3-(1,1'-Biphenyl-4-yl)-2-aminopropanoic acid(Bph); MOD_RES 12 F represents (S)-3-(1,1'-Biphenyl-4-yl)-2-aminopropanoic acid(Bph); MOD_RES 14 F represents (S)-4-(2-amino-2-carboxyethyl)benzoic aci) [compound 116]
- aLISA BMP4 [1, 3]: A (showed an inhibitory activity of 50% or more in a zone to which the peptide was added to in an amount of 0.2 nM)
- aLISA BMP7 [2, 4]: C (showed less than 50% of inhibitory activity in 10 nM-addition zone and showed 50% or more of inhibitory activity in 100 nM-addition zone)

Compound: 59 (Ac-AK(X8)VYVDR[Bip]PYP[Bip][Phe(4-F)][Phe(4-COOH)][Phe(4-COOH)]SCG-NH2; thioether (positions not given here); not fully specified (bridges)) [compound 59]
- aLISA BMP4 [1, 5]: A (showed an inhibitory activity of 50% or more in a zone to which the peptide was added to in an amount of 0.2 nM)
- aLISA BMP7 [2, 5]: C (showed less than 50% of inhibitory activity in 10 nM-addition zone and showed 50% or more of inhibitory activity in 100 nM-addition zone)

Compound: 248 (E[KCOpipzaa]VYVDR[3Pal(6-Ph)]SYV[Bip]Y[Phe(4-COOH)][Phe(4-COOH)]SCG-NH2) [compound 248]
- aLIZA BMP4 (0.2 nM) % Inh [1, 6]: C (showed less than 30% of inhibitory activity in 0.2 nM-addition zone and showed 30% or more of inhibitory activity in 2 nM-addition zone)
- aLIZA BMP7 (10 nM) % Inh [2, 7]: ND (the inhibitory activity was less than 30% at the maximum concentration evaluated)

Compound: 333 (FG[NMeF]G[Bip][dA]DD[Cha]A[NMeF]LHCG-NH2; not fully specified (N-terminus, bridges)) [compound 333]
- aLISA BMP4 (0.2 nM) % inh ([1]; SMAD1 phosphorylation, BMP4 0.2 nM, peptide conc. in assay 0.2, 2, 20 nM): ND (the inhibitory activity was less than 30% at the maximum concentration evaluated)
- aLISA BMP7 (10 nM) % inh ([2]; SMAD1 phosphorylation, BMP7 10 nM, peptide conc. in assay 1, 10, 100 nM): D (showed less than 30% of inhibitory activity in 10 nM-addition zone and showed 30% or more of inhibitory activity in 100 nM-addition zone)

Compound: 266 (QRVYVDR[3Pal(6-Ph)]SYV[Bip][4Pal][Phe(4-COOH)][Phe(4-COOH)]SCG-NH2; not fully specified) [compound 266]
- aLIZA BMP4 (0.2 nM) % inh ([1]; BMP4 0.2 nM stimulus, peptide conc. in assay 0.02, 0.2, 2 nM, class symbols): C (showed less than 30% of inhibitory activity in 0.2 nM-addition zone and showed 30% or more of inhibitory activity in 2 nM-addition zone)
- aLIZA BMP7 (10 nM) % inh ([2]; BMP7 10 nM stimulus, peptide conc. in assay 10, 100, 1000 nM, class symbols): ND (the inhibitory activity was less than 30% at the maximum concentration evaluated)

Compound: CC(C)[C@@H]1NC(=O)[C@H](Cc2ccc(C(=O)O)cc2)NC(=O)[C@H](C(C)C)NC(=O)[C@H](CCCNC(=N)N)NC(=O)[C@H](CCC(=O)O)NC(=O)CSC[C@@H](C(=O)NCC(N)=O)NC(=O)[C@H](CO)NC(=O)[C@H](Cc2ccc(C(=O)O)cc2)NC(=O)[C@H](Cc2ccc(C(=O)O)cc2)NC(=O)[C@H](Cc2ccc(O)cc2)NC(=O)[C@H](Cc2ccc(-c3ccccc3)cc2)NC(=O)[C@@H]2C[C@@H](O)CN2C(=O)[C@H](Cc2ccc(O)cc2)NC(=O)[C@H](CCCCNC(=O)N2CCN(CC(=O)O)CC2)NC(=O)[C@H](Cc2ccc(-c3ccccc3)nc2)NC(=O)[C@H](CCCNC(=N)N)NC(=O)[C@H](CCCCNC(=O)N2CCN(CC(=O)O)CC2)NC1=O [Peptide 277] ({CH2CO}-ERV[Phe(4-COOH)]VK([CO-Piperazinyl(4-CH2COOH)])R[3Pal(6-Ph)]K([CO-Piperazinyl(4-CH2COOH)])Y[Hyp][Bip]Y[Phe(4-COOH)][Phe(4-COOH)]SCG-NH2; thioether N-17)
- pIC50 ([1]; Table 2-2, 277 from 20 nM (1/3), 417 from 300 nM (1/4), ND = IC50 was not calculated): 10.14
- pIC50 ([2]; Table 2-2, 277 from 1,000 nM (1/3), 417 from 300 nM (1/4)): 6.34

Compound: 410 (FG[NMeF]G[3Pal(6-Ph)]GDE[Cha][Aad][NMeF]L[Phe(4-COOH)]C-NH2; not fully specified) [compound 410]
- aLISA BMP4 (0.2 nM) % inh [1, 8]: ND (the inhibitory activity was less than 30% at the maximum concentration evaluated)
- aLISA BMP7 (10 nM) % inh [2, 9]: D (showed less than 30% of inhibitory activity in 10 nM-addition zone and showed 30% or more of inhibitory activity in 100 nM-addition zone)

Compound: 385 (FG[NMePhe(4-Cl)]G[Bip]GDD[Cha]A[NMeF]LHCG-NH2; not fully specified) [compound 385]
- aLISA BMP4 (0.2 nM) % inh [1, 10]: B (showed less than 30% of inhibitory activity in 20 nM-addition zone and showed 30% or more of inhibitory activity in 200 nM-addition zone)
- aLISA BMP7 (10 nM) % inh [2, 11]: F (showed less than 30% of inhibitory activity in 10 nM-addition zone and showed 30% or more of inhibitory activity in 30 nM-addition zone)

Compound: 411 (FG[NMeF]G[3Pal(6-Ph)]GDE[Cha][Aad][NMeF]L[Phe(4-COOH)]C[βAla][dE]) [compound 411]
- aLISA BMP4 (0.2 nM) % inh [1, 8]: ND (the inhibitory activity was less than 30% at the maximum concentration evaluated)
- aLISA BMP7 (10 nM) % inh [2, 9]: D (showed less than 30% of inhibitory activity in 10 nM-addition zone and showed 30% or more of inhibitory activity in 100 nM-addition zone)

Compound: 79 ({CH2CO}-E[KCOpipzaa]VYVDR[Bip][KCOpipzaa]YP[Bip][Phe(4-F)][Phe(4-COOH)][Phe(4-COOH)]SCG-NH2; thioether N-17; not fully specified) [compound 79]
- aLISA BMP4 [1, 3]: C (showed an inhibitory activity of less than 50% in 0.2 nM-addition zone and showed an inhibitory activity of 50% or more in 2 nM-addition zone were defined as B or C)
- aLISA BMP7 [2, 4]: D (showed less than 50% of inhibitory activity in 100 nM-addition zone)

Compound: 374 ([Phe(3-Me)]G[NMeF]G[Bip]GDD[Cha]A[NMeF]LHCG-NH2; not fully specified) [compound 374]
- aLISA BMP4 (0.2 nM) % inh [1, 10]: ND (the inhibitory activity was less than 30% at the maximum concentration evaluated)
- aLISA BMP7 (10 nM) % inh [2, 11]: G (showed less than 30% of inhibitory activity in 30 nM-addition zone and showed 30% or more of inhibitory activity in 90 nM-addition zone)

Compound: 375 ([Phe(4-Me)]G[NMeF]G[Bip]GDD[Cha]A[NMeF]LHCG-NH2; not fully specified) [compound 375]
- aLISA BMP4 (0.2 nM) % inh [1, 10]: B (showed less than 30% of inhibitory activity in 20 nM-addition zone and showed 30% or more of inhibitory activity in 200 nM-addition zone)
- aLISA BMP7 (10 nM) % inh [2, 11]: F (showed less than 30% of inhibitory activity in 10 nM-addition zone and showed 30% or more of inhibitory activity in 30 nM-addition zone)

Compound: 137 ({CH2CO}-ERVYVDR[Bip][hCit]YV[Bip]Y[Phe(4-COOH)][Phe(4-COOH)]SCG-NH2; thioether N-17; not fully specified) [compound 137]
- aLISA BMP4 ([1]; peptides of Synthesis 1, classes D-F, ND): D (showed 50% or more of inhibitory activity in 0.2 nM-addition zone)
- aLISA BMP7 ([2]; peptides of Synthesis 1, classes E, F, ND): E (showed 50% or more of inhibitory activity in a zone to which the peptide was added in an amount of 10 nM)

Compound: 244 (ARVYVDR[3Pal(6-Ph)]SYV[Bip]Y[Phe(4-COOH)][Phe(4-COOH)]SCG-NH2; not fully specified) [compound 244]
- aLIZA BMP4 (0.2 nM) % Inh [1, 6]: C (showed less than 30% of inhibitory activity in 0.2 nM-addition zone and showed 30% or more of inhibitory activity in 2 nM-addition zone)
- aLIZA BMP7 (10 nM) % Inh [2, 7]: ND (the inhibitory activity was less than 30% at the maximum concentration evaluated)

Compound: 57 (Ac-ARVYVDK(X8)[Bip]PYP[Bip]Y[Phe(4-COOH)][Phe(4-COOH)]SCG-NH2; thioether (positions not given here); not fully specified (bridges)) [compound 57]
- aLISA BMP4 [1, 5]: C (showed an inhibitory activity of less than 50% in 0.2 nM-addition zone and showed an inhibitory activity of 50% or more in 2 nM-addition zone were defined as B or C)
- aLISA BMP7 [2, 5]: C (showed less than 50% of inhibitory activity in 10 nM-addition zone and showed 50% or more of inhibitory activity in 100 nM-addition zone)

Compound: 315 (ERV[Phe(4-COOH)][Cba][KCOpipzaa]R[3Pal(6-Ph)][KCOpipzaa]Y[Hyp][Bip][4Pal][Phe(4-COOH)][Phe(4-COOH)]SCG-NH2) [compound 315]
- aLIZA BMP4 (0.2 nM) % inh ([1]; BMP4 0.2 nM, peptide 0.02, 0.2, 2 nM, Table 6): B (showed less than 30% of inhibitory activity in 0.02 nM-addition zone and showed 30% or more of inhibitory activity in 0.2 nM-addition zone)
- aLIZA BMP7 (10 nM) % inh ([2]; BMP7 10 nM, peptide 10, 100, 1000 nM, Table 6): E (showed less than 30% of inhibitory activity in 100 nM-addition zone and showed 30% or more of inhibitory activity in 1,000 nM-addition zone)
